assay: yeast display, Sf9 membrane polyspecificity reagent, FACS + sequencing; frameworks hold sequencing errors
Summary of the method: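 Sorting gates, low and high (top ~1%), were placed on anti-HA fluorescence to track expression and on streptavidin fluorescence to track reagent binding. A clone's polyreactivity label is taken from the gate it came out of. The reagent was 10% biotinylated, detergent-solubilized Sf9 membrane, applied for 1 hour at 4 °C to galactose-induced yeast display cells.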

Sequence	polyreactivity (PSR sort gate)
QVQLVESGGGLVQAGGSLRLSCAASGRTFTANAMGWYRQAPGKERELVAGITSRGGGTYYADSVKGRFTISRDNAKNTVYLQMNSLKPEDTAVYYCAAPYNGGGVHSYWEYDYWGQGTQVSVSS	high polyreactivity
QVQLVESGGGLVQAGGSLRLSCAASGRTFTAYTMGWYRQAPGKERELVASITWSGGSTYYADSVKGRFTISRDNAKNTVYLQMNSLKPEDTAVYYCATAFDYGQFQLSSEFNYWGQGTQVTVSS	low polyreactivity
QVQLVESGGGLVQAGGSLRLSCAASGRTFTDNAMGWYRQAPGKERELVAAISRRGGSTYYADSVKGRFTISRDNAKNTVYLQMNSLKPEVTAVYYCNTDEIAGGFPYRYYLYYGYDYWGQGTQVTVSS	low polyreactivity
QVQLVESGGGLVQAGGSLRLSCAASGRTFTEYAMGWYRQAPGKERELVAGIDSGSGSTYYADSVKGRFTISRDNAKNTVYLQMNSLKPEDTAVYYCAADHAYYRYDYWGQGTQVTVSS	low polyreactivity
QVQLVESGGGLVQAGGSLRLSCAASGRTFTGNAMGWYRQAPGKERELVAAISFSGASTYYADSVKGRFTISRDNAKNTVYLQMNSLKPEDTAVYYCNADSRYRSFDYWGQGTQVTVSS	high polyreactivity
QVQLVESGGGLVQAGGSLRLSCAASGRTFTGNAMGWYRQAPGKERELVAAISQRGGRTNYADSVKGRFTISRDNAKNTVYLQMHSLKPEDTAVYYCAADQSYPKRLPSFEYWGQGTQVTVSS	low polyreactivity
QVQLVESGGGLVQAGGSLRLSCAASGRTFTGNVMGWYRQAPGKERELVAAISRRGGITYYADSVKGRFTISRDNAKNTVYLQMNSLKPEDTAVYYCDAYSWRRQGDHYDYWGQGTQVTVSS	high polyreactivity
QVQLVESGGGLVQAGGSLRLSCAASGRTFTGYAMGWYRQAPGKERELVAAISASGGSTYYADSVKGRFTISRDNAKNTVYLQMNSLKPEDTAVYYCAAESWYSVLWEEGYDYWGQGTQVTVSS	low polyreactivity
QVQLVESGGGLVQAGGSLRLSCAASGRTFTINAMGWYRQAPGKERELVATIRSSGGSTSYADSVKGRFTISRDNAKNTVYLQMNSLKPEDTAVYYCAADGWGRYDYWGQGTQVTVSS	low polyreactivity
QVQLVESGGGLVQAGGSLRLSCAASGRTFTKYAMGWYRQAPGKERELVAGITRRGGNTYYADSVKGRFTISRDNAKNTVYLQMNSLKPEDTAVYYCAATLFYTGSRFRYYYWGQGTQVTVSS	high polyreactivity
QVQLVESGGGLVQAGGSLRLSCAASGRTFTNYAMRWYIPAPGKERELVAAAITVGGGRTYYADSVKGRFTISRENAKNTVYLQMNSLKPEDTAVYYCATDFGTYWYEYWGQGTQVTVSS	high polyreactivity
QVQLVESGGGLVQAGGSLRLSCAASGRTFTPNAMGWYRQAPGKEREFVAAITYSGGSTRYADSVKGRFTISRDNAKNTVYLQMNSLKPEDTAVYYCAKGYFYYVYTEDDGYWGQGTQVTVSS	low polyreactivity
QVQLVESGGGLVQAGGSLRLSCAASGRTFTPNGMGWYRQAPGKERELVAAITYGGGITDYADSVKGRFTTSRDNAKNTVYLQMNSLKPEDTAVYYCAATTLSFEGGKYWSKYDYWGQGTQVTVSS	low polyreactivity
QVQLVESGGGLVQAGGSLRLSCAASGRTFTRNAMGWYRQAPGKERELVAAISAGGTRTYYADSVKGRFTISRDNAKNTVYLQMNSLIPEDTAVYYCAKPIAPAPNAYPAYDYWGQGTQVTVSS	high polyreactivity
QVQLVESGGGLVQAGGSLRLSCAASGRTFTRYAMGWYRQAPGKEREFVAAITTRGGSTYYADSVKGRFTISRDNAKNTVYLQMNSLKPEDTAVYYCAADYYYVQVLYDLGLDYWGQGTQVTVSS	high polyreactivity
QVQLVESGGGLVQAGGSLRLSCAASGRTFTRYAMGWYRQAPGKERELVAAISLSSGRTYYADSVKGRFTISRDNAKNTVYLQMNSLKPEDTAVYYCAVRSYVVPGKGFGYWGQGTQVTVSS	high polyreactivity
QVQLVESGGGLVQAGGSLRLSCAASGRTFTRYTMGWYRQAPGKERELVAAISSGGSTTYADSVKGRFTISRDNAKNTVYLQMNSLKPEDTAVYYCAAGLVYRGYRRDYWGQGTQVTVSS	low polyreactivity
QVQLVESGGGLVQAGGSLRLSCAASGRTFTRYTMGWYRQAPGKERELVAGITRSGGSTYYADSVKGRFTISRDNAKNTVYLQMNSLKPEDTAVYYCAARLSGRYDSQDNYWGQGTQVTVSS	high polyreactivity
QVQLVESGGGLVQAGGSLRLSCAASGRTFTSNAMGWYRQAPGKEREFVAAITRSTGSTNYADSVKGRFTISRDNAKNTVYLQMNSLKPEDTAVYYCNAYLYYKGRYSRQYYYWGQGTQVTVSS	high polyreactivity
QVQLVESGGGLVQAGGSLRLSCAASGRTFTSNAMGWYRQAPGKESELVAVITTSGDRTFYADSVKGRFTISRDNAKNTVYLQMNSLKPEDTAVYYCAADVRLTRGFDYWVQGTQVTVSS	high polyreactivity
QVQLVESGGGLVQAGGSLRLSCAASGRTFTSYAMGSYRQAPGKERELVAVITRRGGSTSYADSVKGRFTISRDNAKNTVYLQMNSLKPEDTAVYYCAAKRTWPDVNYYYWGQGTQVTVSS	high polyreactivity
QVQLVESGGGLVQAGGSLRLSCAASGRTFTSYAMGWYRQAPGKERELVATISTGGSTNYADSVKGRFTISRDNAKNTVYFQMNSLKPEDTAVYYCAAQVDGKRQYYRYDYWGQGTQVTVSS	low polyreactivity

Sequence	polyreactivity (PSR sort gate)
QVQLVESGGGLVQAGGSLRLSCAASGRTFTSYAMGWYRQAPGKERELVAVITWRGVSTYYADSVKGRFTISRDNAKNTVYLQMNSLKPEDTAVYYCAARRPGYYPYKGFDYWGQGTQVTVSS	high polyreactivity
QVQLVESGGGLVQAGGSLRLSCAASGRTFTSYVMGWYIQAPGKERELVAAITRGGRSYYADSVKGRFTISRDNAKKTVYLQMNSLTPEDTAVYYCGARYSVSYNYWGQGTQVTVSS	high polyreactivity
QVQLVESGGGLVQAGGSLRLSCAASGRTFTTNAMGWYRQAPGKERELVAAISRRGGSTYYADSVKGRFTISRDNAKNTVYLQMNSLKPEDTAVYYCYAHLWIRGYDYWGQGTQVTVSS	high polyreactivity
QVQLVESGGGLVQAGGSLRLSCAASGRTFTTNAMGWYRQAPGKERELVAAITIGDDTYYADSVKGRFTISRDNAKNTVYLQMNSLKPEDTAVYYCNVDGRSDGDDYWGQGTQVTVSS	low polyreactivity
QVQLVESGGGLVQAGGSLRLSCAASGRTFTTYAMGWSRQAPGKERELVAAISSGGSTHYADSVKGRFTISRDNAKYTVYLQMNSLKPEDTAVYYCAADKYYYRTSGQEMDYWGQGTQVTVSS	high polyreactivity
QVQLVESGGGLVQAGGSLRLSCAASGRTFTTYTMGWYRQAPGKERELVASINYRGGRTYYADSVKGRFTISRDNAKNTVYLQMNSLKPEDTAVYYCAKRRYYRRRQYYHYDYWGQGTQVTVSS	high polyreactivity
QVQLVESGGGLVQAGGSLRLSCAASGRTFTVYAMGWYRLAPGKERELVAAISSGGITNYADSVKGRFTISRDNAKNTVYLQMNSLKPEDTAVYYCNTKSGKARYEFGYWGQGTQVTLSS	low polyreactivity
QVQLVESGGGLVQAGGSLRLSCAASGRTFTVYAMGWYRQAPGKEREFVAAITERGGSTYYADSVKGRFTISRDNAKNTVYLQMNSLKPEDTAVYYCAAVYYWRPGWYVRFDYWGQGTQVTVSS	low polyreactivity
QVQLVESGGGLVQAGGSLRLSCAASGRTFTVYAMGWYRQAPGKERELVAAISSGGITYYADSVKGRFTISRDNAKNTVYLQMNSLKPEDTAVYYCNTKSGKARYEFGYWGQGTQVTVSS	low polyreactivity
QVQLVESGGGLVQAGGSLRLSCAASGRTFTWNVMGWYRQAPGKERELVAAITTDDRTYADSVKGRFTISRDNAKNTVYLQMNILKPEDTAVYYCATVVAWSSRPVGEDYWGQGTQVTVSS	low polyreactivity
QVQLVESGGGLVQAGGSLRLSCAASGRTFTWYAMGWYRQAPGKEREFVAAISFSGGSTYYADSVKGRFTISRDYAKNTVFLQMNSLKPEDTAVYYCARPSGDAWEGPRMDYWGQGTQVTVSS	low polyreactivity
QVQLVESGGGLVQAGGSLRLSCAASGRTFTWYAMGWYRQAPGKERELVAAISFSGGSTYYADSVKGRFTISRDNAKNTVYLQMNSLKPEDTAVYYCARPSGDAWEGPRMDYWGQGTQVTVSS	low polyreactivity
QVQLVESGGGLVQAGGSLRLSCAASGRTFTYNTMGWYRQAPGKERELVAAISSRGGRTYYADSVKGRFTISRDNAKNTVYLQMHSLKAEDTAVYYCAVYGYYSLSHWDYDYWAQGTQVTVSS	high polyreactivity
QVQLVESGGGLVQAGGSLRLSCAASGRTFTYNVMGWYRQAPGKERELVAAITSGGSTYYADSVKGRFTISRDNAKNTVYLQMNSLKPEDTAVYYGAARGYSYKWDNRYDYWGQGTQVTVSS	high polyreactivity
QVQLVESGGGLVQAGGSLRLSCAASGRTFTYYAMGWSRQAPGKERELVAGISSGGGSTYYADSVKGRFTISRDNAKNSVYFQMNILNPEDTAVYYCATAKRQGCYSEYDYWGQGTQVTVSS	high polyreactivity
QVQLVESGGGLVQAGGSLRLSCAASGRTFTYYAMGWYRPAPGKERELVARITTDGSSTYYADSVKGRFTISRDNAKNTVYLQMNSLKPEDTAVYYCAADFQYAIHTDMDYWGQGTQVTVSS	high polyreactivity
QVQLVESGGGLVQAGGSLRLSCAASGRTFTYYAMGWYRQAPGKEREFVASISLSGGRTYYADSVKGRFTISRDNAKNTVYLQMNSLKPEDTAVYYCNAYYPRVHRSDYWGQGTQVTVSS	low polyreactivity
QVQLVESGGGLVQAGGSLRLSCAASGRTFTYYGMGWYRQAPGKERELVAAISGGGDTNYADSVKGRFTISRDNAKNTVYLQMNSLKPEDTAGYYCAAKRRYYWDYWFYEYDYWGQGTQVTVSS	low polyreactivity
QVQLVESGGGLVQAGGSLRLSCAASGRTFVANAMGWYRQAPGKERELVAAISSSGGSTYYADSVKGRFTISRDNAKNTVYLQMNSLKPEDTAVYYCNRVGVYYRLYPYYYWGQGTQVTVSS	high polyreactivity
QVQLVESGGGLVQAGGSLRLSCAASGRTFVANDMAWYTHAPGKERELFAAISYSGGSTYYADSVKGRFTISRDNAKNTVYLQMNSLKPEDTEVYYCNAYYYGGVRKQHGYWGQVTQVTVSS	low polyreactivity
QVQLVESGGGLVQAGGSLRLSCAASGRTFVDYDMGWYRQAPGKERELVADINSGGSTYYADSVKGRFTISRDNAKNTVYLQMNSLKPEDTAVYYCAARPYYWGQGTQVTVSS	high polyreactivity
